Results taken from the nanobody polyreactivity screen of Harvey et al. (2022).

assay: yeast display, Sf9 membrane polyspecificity reagent, FACS + sequencing; frameworks hold sequencing errors
Method in brief: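 A nanobody's polyreactivity label depends on the gate it was sorted from. Yeast display cells were stained with 10% biotinylated, detergent-solubilized Sf9 membrane reagent for 1 hour at 4 °C, enriched on streptavidin microbeads and sorted by FACS. The low and high (top ~1%) gates were set on anti-HA fluorescence for expression and streptavidin fluorescence for reagent binding.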

Sequence	polyreactivity (PSR sort gate)
QVQLVESGGGLVQAGGSLRLSCAASGSIFKRNTMGWYRQAPGKERELVAAISASGGRTYYADSVKGRFTISRDNAKNTVYLQMNSLKPEDTAVYYCNARFRIGRSELDYWGQGTQVTVSS	low polyreactivity
QVQLVESGGGLVQAGGSLRLSCAASGSIFKRYAMGWYRQAPGKERELVAAISYSGGSTYYADSVKGLFTISRDNAKNTVYLQMNSLKPEDTAVDYCARGWFYPYYWGQGTQVTVSS	high polyreactivity
QVQLVESGGGLVQAGGSLRLSCAASGSIFKSNGMGWNRQAPGKERELVAAITGSGGTTYYADSVKGRFTISRDYAKNTVYLQMNSLKPEDTAVYYCAAVNYYWGQGTQVTVSS	low polyreactivity
QVQLVESGGGLVQAGGSLRLSCAASGSIFKTNAMGWYRQAPGKERELVAAIRASGGSTYYADSVKGRFTISRDNAKNTVYLQMNSLKPEDTAVYYCAARYWFKYYWGQGTQVTVSS	high polyreactivity
QVQLVESGGGLVQAGGSLRLSCAASGSIFKVNAMGWYRQAPGKERELVAAISGNTDTTYYADSVKGRFTISRDNAKNTVYLQMNSLKPEDTAVYYCAADAYIKYYFRWINMYYWGQGTQVTVSS	high polyreactivity
QVQLVESGGGLVQAGGSLRLSCAASGSIFKWYAMGWSRQAPGKERELVAAITNGGGSTYYADSVKGRFTISRDNAKNTVYLQMNSLKAEDTAVYYCAKDGHSYYPWVYDYWGQGTQVTVSS	low polyreactivity
QVQLVESGGGLVQAGGSLRLSCAASGSIFKWYAMGWYRQAPGKERELVAAITRGGSTNYADSVKGRFTISRDNAKNTVYLQMNSLKAEDTAVYYCNAVYTYRSGFGYWGQGTQVTVSS	low polyreactivity
QVQLVESGGGLVQAGGSLRLSCAASGSIFKWYTMGWYRQAPGKERELVAGISRGGSTYYADSVKGRFTISRDNAKNTVYLQMNSLKPEDTAVYYCAKASAIWRGDVKYYYWGQGTQVTVSS	high polyreactivity
QVQLVESGGGLVQAGGSLRLSCAASGSIFKYSAMAWYRPAPGKERELVATITSGGRTNYADSVKGRFTISRDNAKNTVYLQMNSLKPEDPAVYYCAAGSYYPYHSTTRWYVYWGQGTQVTVSS	high polyreactivity
QVQLVESGGGLVQAGGSLRLSCAASGSIFKYYAMGWYRQAPGKERELVAAISSTGGSTYYAHSLKGRFTISRDNANYTVYLQMNSLKTEDTAVYYCNTTYIWKNYDYWGQGTQVTVSS	high polyreactivity
QVQLVESGGGLVQAGGSLRLSCAASGSIFKYYAMGWYRQAPGKERELVAAITTTGGITYYADSVNGRFTISRDNAKNTDYLQMISLKPEDTAVYYCNAYYPIRSSPYGYYYCGQGTQVTVSS	high polyreactivity
QVQLVESGGGLVQAGGSLRLSCAASGSIFKYYTMGWYRPAPGKERELVAAITWRGGRTYYADSVKGRFTISRDNAKNTVYLQMNSLKPEDTAVYYCNTASWGFASYYYTYNYWGQGTQVTVSS	high polyreactivity
QVQLVESGGGLVQAGGSLRLSCAASGSIFLAYAMGWYRQAPGKEREFVAAISFSDGSTYYADSVKGRFTISRDNAKNTVYFQMNSLKPEDTAVYYCNKGASPDDYDYWGQGTQVTVSS	low polyreactivity
QVQLVESGGGLVQAGGSLRLSCAASGSIFLAYAMGWYRQAPGKERELVAAITSGGGRTYYADSVKGRFTISRDNAKNTVYLQMNSLKPEDTAVYYCAASYRAGQMWYDYWGQGTQVTVSS	high polyreactivity
QVQLVESGGGLVQAGGSLRLSCAASGSIFLENAMGWYRQAPGKERELVAAISRSGGSTYYADSVKGRFTISRDNAKNTVYLQMNSLKPEDTAVYYCNAYRDVYNYFFGAKYDYWGQGTQVTVSS	high polyreactivity
QVQLVESGGGLVQAGGSLRLSCAASGSIFLFNAMGWYRQAPGKERELVAAINRDDSTYYADSVKGRFTISRDNAKNTVYLLMISLKPEDTAVYYCAAPVLHAYYGYGYWGQGTQVTVSS	low polyreactivity
QVQLVESGGGLVQAGGSLRLSCAASGSIFLINAMGWYRQAPGKERELVAAISWSGGSTSYADSVKGRFTISRDNAKNTVYFQMNSLKPEDTAVFYCAAESISYRPGYDYWRQGTQVTVSS	low polyreactivity
QVQLVESGGGLVQAGGSLRLSCAASGSIFLIYAMGWYRQAPGKERELVAAITGGGTTNYADSVKGRFTISRDNAKNTVYLQMNSLKPEDTAVYYCNAVPRSWSPYRHWFDYWGQGTQVTVSS	low polyreactivity
QVQLVESGGGLVQAGGSLRLSCAASGSIFLKYAMGWYRQAPGKERELVAAISRGGDTNYADSVKGRFTISRDNAKNTVYLQMNSLKPEDTAVYYCAARPGLYFTRRGRYYWGQGTQVTVSS	high polyreactivity
QVQLVESGGGLVQAGGSLRLSCAASGSIFLKYTMGRYRQAPGKERELVAAITSGGTTNYADSVKGRFTISRDNAKNTVYLQMNSLKPEDTAVYYCARDSYQLGLIRDPLEYDYWGQGTQETVSS	low polyreactivity
QVQLVESGGGLVQAGGSLRLSCAASGSIFLQNAMGWYRQAPGKERELVAAITNGGSTNYADSVKGRFTISRDNAKNTVYLQMNSLKPEDSAVYYCAAYPLYTGSYDRGGYWGQGTQVTVSS	low polyreactivity

Sequence	polyreactivity (PSR sort gate)
QVQLVESGGGLVQAGGSLRLSCAASGSIFLRYAMGWYRQAPGKERELVASITSGGSRYYADSVKGRFTISRDNAKNTVYFQMNSLKPEDTAVYYCNALPYRYRRYDYWGQGTQVTVSS	low polyreactivity
QVQLVESGGGLVQAGGSLRLSCAASGSIFLSNMGWYRQAPGKERELVAAISRNGGSTYYADSVKGRFTISRDNAKNTVYLQMNSLKPEDTAVYYCAVQRYWGQGTQVTVSS	high polyreactivity
QVQLVESGGGLVQAGGSLRLSCAASGSIFLSYDMGWYRQAPGNESELVAAITQSGGSTYYADSVKGRFTISRDNAKNTVYLQMNSLKPEDTAVYYCAADYGYFPQETYPTYGYYYWGQGTQVTVSS	low polyreactivity
QVQLVESGGGLVQAGGSLRLSCAASGSIFLSYTMGRYRQAPGKERELVAAITSGGSTKYADSVKGRFTISRDNAKNTVYLQMNSLKPEDTAVYYCNATPYSRLGYWGQGTQVTVSS	high polyreactivity
QVQLVESGGGLVQAGGSLRLSCAASGSIFLTYTMGWYRQATGKERELVAAITDSDGSTSYADSVKGRFTISRDNAKNTVYLQMNSLKPEDTAVYYCAVEGYWYAGWYAMDYWGQGTQVTVSS	low polyreactivity
QVQLVESGGGLVQAGGSLRLSCAASGSIFLVNAMGWYRQAPGERKELVAAISWSSGSTYYADSVKGRFTISRDNAKNTVYLQMNSLKPEDTAVYYCAKRSSITYRYDYWGQGTQVTVSS	high polyreactivity
QVQLVESGGGLVQAGGSLRLSCAASGSIFLVYAMGWYRQAPGKERELVAAIRISDSTNYADSVKGRFTISRDNAKNTVYLQMNSLKPEDTAVYYCNVDTVGLGGEKGGYYWGQGTQVTVSS	low polyreactivity
QVQLVESGGGLVQAGGSLRLSCAASGSIFLWNAMGWYRQAPGKEREFVASITSRGGSTYYADSVKGRFTISRDNAKNTVYLQMNSLKPEDTAVYYCAAVRSKYLYYQGGYSSYGYWGQGTQVTVSS	high polyreactivity
QVQLVESGGGLVQAGGSLRLSCAASGSIFLYNAMGWYRQAPGKERELVAAISAIGSNTYYADSVKGRFTISRDNAKNTVYLQMNSLKPEDTAVYYCAAESVNVVNFGTRVGYWGQGTQVTVSS	high polyreactivity
QVQLVESGGGLVQAGGSLRLSCAASGSIFLYNAMGWYRQAPGKERELVAAISSSSDRTYYADSVKGRFTISRDNAKNTVYLQMNSLKPEDTAVYYCNVVYIGWRKYEYWGQGTQVTVSS	high polyreactivity
QVQLVESGGGLVQAGGSLRLSCAASGSIFLYNAMGWYRQAPGKESEFDAAISWSGVSTYYADSVKGRFTISRDNAKNTVYLHMNSLKPEDTAVYYCNAVYARVPIYDYWGQGTQVTVSS	low polyreactivity
QVQLVESGGGLVQAGGSLRLSCAASGSIFLYNAMRWYRQAPGKERELVAAKSYSGASTYYADSVKGRFTISRDNAKNTVYLQMNSLKAEDTAVYYCAKTFRYKWPYGTPKYDYWGQGTQVTVSS	high polyreactivity
QVQLVESGGGLVQAGGSLRLSCAASGSIFLYYAMGWYIQAPGKERELVAGIRRGGRTNYADSVKGRFTISRDNAKNTVYLQMNSLKPEDTAVYYCAKGGYWGHGTQVTVSS	high polyreactivity
QVQLVESGGGLVQAGGSLRLSCAASGSIFLYYAMGWYTQAPGKERELVASISSTGSTYYADSVKGRFTISRDNAKNTVYLLINSLKPEDTGVYYCAKRRWYYYPRYSLSTQMDYWGQGTQVTVSS	high polyreactivity
QVQLVESGGGLVQAGGSLRLSCAASGSIFMRYSMGWYRQAPGKDRELVAAITRSGGSTYYADSVKGRFTISRDNAKNTVYLQMNSLKPEDTAVYFCAAYTFVTVGYDYWGQGTQVTVSS	high polyreactivity
QVQLVESGGGLVQAGGSLRLSCAASGSIFNGNAMGWYRQAPGKERELVAAITRRGGRTYYADSVKGRFTISRDNAKNTVYLQMNSLKPEDTAVYYCNAYSKAVQGGYYYWGQGTQVTVSS	high polyreactivity
QVQLVESGGGLVQAGGSLRLSCAASGSIFNGYAMGWYRQAPGKERELVAAISWSGVGTYYADSVKGRFTISRDNAKNTVYLEMNSLKPEDTAVYYCNAVATHDWLRVDTYEYWGQGTQVTVSS	low polyreactivity
QVQLVESGGGLVQAGGSLRLSCAASGSIFNGYAMGWYRQAPGKERELVATITRGGGSTYYADSVKGRFTISRDNAKNTVYLQMNSLKPEDTAVYYCAKTYFYGVRRFNYWGQGTQVTVSS	high polyreactivity
QVQLVESGGGLVQAGGSLRLSCAASGSIFNINAMGWCRQAPGKDRELVATITSGGTTSYADSVKGRFTISRDNAKNTVYLQMNSLKPEDTAVYYCNAEIYPIVKAGRQHPRRYDYWGQGTQVTVSS	low polyreactivity
QVQLVESGGGLVQAGGSLRLSCAASGSIFNIYAMGWYRQAPGKERELVATITGIADSTYYADSVKGRFTISRDNAKNTVYLQMNSLKPEDTAVYFCAAEKYVAEYEYWGQGTQVTVSS	low polyreactivity
